Source: article PMC7721913 (The Journal of Cell Biology, 2020)

Biological target: KLC1 TPR1-6 fragment (human KNS2 residues 205-501) (human, UniProt Q07866 205-501)
Test: ITC

KLC1 TPR1-6 fragment (human KNS2 residues 205-501), sequence (Q07866 205-501): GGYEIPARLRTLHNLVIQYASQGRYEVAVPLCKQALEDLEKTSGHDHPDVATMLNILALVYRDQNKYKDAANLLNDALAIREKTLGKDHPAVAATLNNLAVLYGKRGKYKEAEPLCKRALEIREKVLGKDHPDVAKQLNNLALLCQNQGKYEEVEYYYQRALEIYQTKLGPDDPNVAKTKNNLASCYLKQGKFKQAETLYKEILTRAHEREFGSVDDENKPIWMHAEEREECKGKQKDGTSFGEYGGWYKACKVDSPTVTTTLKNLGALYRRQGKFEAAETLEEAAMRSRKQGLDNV

B1: WT SFPQ peptide spanning the Y-acidic motif (peptide)
peptide: ESEMEDAYHEHQANLLR
What does the source list for B1?
Kd: 3.83 ± 2.31 µM; dH: -2.05 ± 0.438 kcal/mol; stoichiometry N: 0.964 ± 0.143
